Assay results as given in article doi:10.1101/2023.11.05.564366v1.

How the values were obtained:
Assay in all cases: purified protein
Conditions in all cases: 50 °C, 1100 rpm
purified protein [1] = substrate: O=C(O)c1ccc(C(=O)OCCOC(=O)c2ccc(C(=O)OCCO)cc2)cc1
purified protein [2] = substrate: O=C(OCCO)c1ccc(C(=O)OCCO)cc1
purified protein [3] = substrate: O=C(O)c1ccc(C(=O)OCCO)cc1
purified protein [4] = substrate: O=C(O)c1ccc(C(=O)OCCOC(=O)c2ccc(C(=O)OCCOC(=O)c3ccc(C(=O)O)cc3)cc2)cc1

B1: LCCICCG (unidentified prokaryotic organism; D238C/F243I/S283C/Y127G) (protein)
chain: QSNPYQRGPNPTRSALTADGPFSVATYTVSRLSVSGFGGGVIYYPTGTSLTFGGIAMSPGYTADASSLAWLGRRLASHGFVVLVINTNSRFDGPDSRASQLSAALNYLRTSSPSAVRARLDANRLAVAGHSMGGGGTLRIAEQNPSLKAAVPLTPWHTDKTFNTSVPVLIVGAEADTVAPVSQHAIPFYQNLPSTTPKVYVELCNASHIAPNSNNAAISVYTISWMKLWVDNDTRYRQFLCNVNDPALCDFRTNNRHCQ
Question: How did the Km (purified protein [1]) turn out when B1 was run?
Answer: Its Km is 210 ± 91 µM.

Question: What about the kcat (purified protein [1]) of the same protein?
Answer: Its kcat is 9.1 ± 2.71 s⁻¹.

Question: What about the Km (purified protein [2]) of the same protein?
Answer: The Km was 750 ± 270 µM.

Question: And the kcat (purified protein [2])?
Answer: Its kcat is 8.2 ± 1.22 s⁻¹.

Question: And the Km (purified protein [3])?
Answer: Its Km is 920 ± 220 µM.

Question: What about the kcat (purified protein [3]) of the same protein?
Answer: The kcat was 0.058 ± 0.0024 s⁻¹.

Question: And the Km (purified protein [4])?
Answer: The Km was 670 ± 610 µM.

Question: What about the kcat (purified protein [4]) of the same protein?
Answer: The kcat was 331 ± 142 s⁻¹.
